Data from patent US20240101959A1, “USE OF IL-2R-BETA-GAMMA AGONIST PEPTIDES IN CELL MANUFACTURING” (MEDIKINE, INC., priority 2022, published 2024).
Positions of bridges follow the written chain, without caps; N, C: chain ends. No end group written: not given here.

T1: hu-IL-2Rβ subunit (human, UniProt P14784 27-240, limits assumed)
T1 construct: also called human interleukin-2 receptor subunit β; CD122
T1 sequence (looked up): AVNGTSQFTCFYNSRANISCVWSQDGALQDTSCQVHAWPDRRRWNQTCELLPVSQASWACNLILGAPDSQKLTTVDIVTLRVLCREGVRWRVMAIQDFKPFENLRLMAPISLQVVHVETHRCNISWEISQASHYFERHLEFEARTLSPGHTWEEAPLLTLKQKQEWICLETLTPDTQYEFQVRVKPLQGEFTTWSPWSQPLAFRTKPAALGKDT


Target: T1, hu-IL-2Rβ subunit
Test: phage ELISA competition assay

Row | IC50 [µM] | Binder
1 | < 100 | VDEFYPCSMAGLGELCDLERQN [SEQ ID NO 429]
2 | < 100 | QTWYLPCWMAKLGELCDLGERD [SEQ ID NO 434]
3 | < 100 | FHPCWRALLGELCDLETALGPS [SEQ ID NO 443]
4 | < 100 | RLVYDCLFAQVGDLCEVIS [SEQ ID NO 438]
5 | < 100 | EPRWYPCWMAQMGELCDMEMSD [SEQ ID NO 435]
6 | < 100 | KGSWQPCWFAKLGELCDLHPTS [SEQ ID NO 433]
7 | < 100 | WWPCWIAQVGELCDLDGPGRPT (disulfide 4-13 (inferred)) [SEQ ID NO 437]
8 | < 100 | TGEWWPCWVAEVGELCDLERGP (not fully specified (bridges); cysteine pairing not given here) [SEQ ID NO 441]
9 | < 100 | ARTQGWYDCLFAQVGELCDL [SEQ ID NO 442]
10 | < 100 | WRILWMQQCWRSHVVNQCAL (not fully specified (bridges); cysteine pairing not given here) [SEQ ID NO 439]
11 | < 100 | WGGRYWCWMAKLGDLCDLEDEW [SEQ ID NO 436]
12 | < 100 | WYPCWIAQVGELCDLDEVSHGR [SEQ ID NO 440]
13 | < 100 | SQRWYPCWVAHLGELCDLEGVV [SEQ ID NO 432]
14 | < 100 | RPPWYPCWMARLGEVCDMDIML [SEQ ID NO 431]
15 | < 100 | AWDWYPCSVAALGEICDLDIQD [SEQ ID NO 430]

Continued, binder first:

Row | Binder | IC50 [µM]
16 | WTPCWIAQLGELCDLEGRHGTV [SEQ ID NO 419] | < 100
17 | LPCWIAQLGDLCDLEPEPSPE [SEQ ID NO 420] | < 100
18 | FYPCWAAHLGDLCDLEYQEAGP [SEQ ID NO 421] | < 100
19 | WGRKEQWLPCWKAQLGELCDLE [SEQ ID NO 105] | < 100
20 | HQGFYSCRLARLGELCDLDTGW [SEQ ID NO 428] | < 100
21 | WLPCWLAPLGDLCDMDMSAVMN [SEQ ID NO 422] | < 100
22 | WYPCWLAQLGEVCDLDDGGGVF [SEQ ID NO 424] | < 100
23 | QTKLEGWYPCWMAQLGELCDLD [SEQ ID NO 104] | < 100
24 | ARTWWPCWRAKLGELCDLVVPE [SEQ ID NO 427] | < 100
25 | TEMWYPCWMAYQGELCDLDMTY [SEQ ID NO 426] | < 100
26 | WRPCWMAHLGDLCDLEMANENP [SEQ ID NO 423] | < 100
